According to the supplement of paper PMC9732359:
± gives the uncertainty stated by the source.

Assay: protein stability index of a GFP-peptide fusion (yeast GPS) (PSI 1-4); higher = more stable; sorted into four equal gates, so the index is relative within each strain
Summary of the method: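 The protein stability index combines read frequencies across sorting gates, each weighted by its gate number and then summed. To obtain those frequencies, a pooled yeast library of GFP fusions to tiled 17-residue yeast protein peptides, on a plasmid also expressing Cherry, was grown to mid-log phase in leucine-free medium. The cells were sorted into four equal gates by GFP/Cherry ratio before plasmid amplification by PCR and Illumina sequencing.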

Sequence	protein stability index (doa10∆)	protein stability index (pdr5∆)	protein stability index (san1∆)	protein stability index (ubr1∆)
AGDIQLQYGWKVERHIM [RPO21]	1.18 ± 0.067	1.24 ± 0.12	1.36 ± 0.19	1.24 ± 0.098
VIFDASIKDTQNVGQGK [BRN1]	2.15 ± 0.14	2.45 ± 0.12	2.61 ± 0.13	3.01 ± 0.096
PRMYHIGLRQFQQIQYE [POP1]	2.06 ± 0.098	1.67 ± 0.071	2.25 ± 0.095	1.48 ± 0.1
SPYERRLIDLIRNSGEK [RPL36A]	1.86 ± 0.093	1.89 ± 0.098	1.68 ± 0.16	1.89 ± 0.086
DGRSFDQFRDVEITFGK [RRP45]	3.27 ± 0.092	3.3 ± 0.058	3.54 ± 0.077	3.21 ± 0.057
DRVKVIECFKPGDIVRA [CSL4]	2.66 ± 0.13	2.39 ± 0.14	2.1 ± 0.18	2.36 ± 0.16
FIYGMSAKDHPKVKEIK [PRP8]	2.53 ± 0.25	3.12 ± 0.19	2.72 ± 0.23	3.33 ± 0.16
ISQLYSDAVMAEHSQNK [YJL041W/NSP1]	2.99 ± 0.079	2.83 ± 0.081	2.75 ± 0.096	2.81 ± 0.088
LELMDSKKTGQFNAQGV [POP1]	3.54 ± 0.12	3.6 ± 0.077		3.48 ± 0.092
DEVDAIGGRRFSEGTSA [RPT4]	2.72 ± 0.086	2.67 ± 0.083	2.48 ± 0.1	2.35 ± 0.09
HWMGSSVSGSPRPSYSS [YMR129W/POM152]	2.98 ± 0.088	3.11 ± 0.089	2.74 ± 0.07	2.87 ± 0.084
NNNNNNNNSNNIMSASG [YGL172W/NUP49]	2.73 ± 0.059	2.48 ± 0.038	2.67 ± 0.077	3.1 ± 0.059
TKSSLNDLDYDLIADTI [YML103C/NUP188]	2.64 ± 0.07	2.48 ± 0.057	2.27 ± 0.067	2.52 ± 0.053
LKAQITSLKCLVNRKPI [SNF2]	2.05 ± 0.045	1.77 ± 0.038	1.6 ± 0.062	1.61 ± 0.032
VNYRHFKAMEDVIAWKN [ITC1]	2.98 ± 0.15	3.36 ± 0.17	3.27 ± 0.077	3.37 ± 0.065
IASAGKDGEIMLWNLAA [ASC1]	2.92 ± 0.077	1.66 ± 0.053	3.03 ± 0.054	3.09 ± 0.076
LLIISCIIFITFEFINI [YML031W/NDC1]	1.29 ± 0.038	1.43 ± 0.038	1.28 ± 0.079	1.28 ± 0.029
TDRLSTTQRRYEKAQKD [SMC1]	3.33 ± 0.14	3.23 ± 0.095	2.63 ± 0.14	
MQDPDGIDINTKIFNSV [YCG1]	2.93 ± 0.21	3.04 ± 0.12	2.54 ± 0.17	2.89 ± 0.068
VEFKLPKELVPSHEKLK [CDC53]	2.37 ± 0.054	2.24 ± 0.045	2.24 ± 0.071	2.08 ± 0.045
LVDILPPDSDSSISVMG [RPT3]	2.23 ± 0.068	2.27 ± 0.063	2.24 ± 0.065	2.72 ± 0.055
EMLEENFPEASKLSEHL [YCG1]	2.55 ± 0.28	2.29 ± 0.24	2.82 ± 0.19	2.49 ± 0.15
YYYYHPMNAPTPAMIPY [DSN1]	2.14 ± 0.047	2.39 ± 0.05	2.49 ± 0.066	2.46 ± 0.039
AIPNSIIKRSNGQSLSP [YMR153W/NUP53]	2.14 ± 0.12	2.68 ± 0.049	2.71 ± 0.061	2.69 ± 0.037
SVAKIRFPETMDETQTR [RPO21]	3.55 ± 0.073	3.34 ± 0.12	3.66 ± 0.063	3.59 ± 0.049
KNQHRAASWYGSFNEMK [RMP1]	2.89 ± 0.048	3.21 ± 0.055	3.12 ± 0.042	3.18 ± 0.038
